From patent US20170008928A1, “NOVEL PEPTIDES AND PEPTIDE DERIVATIVES AND USES THEREOF” (Novo Nordisk A/S, priority 2015, published 2017) come the findings set out here.

Test [1] addresses T1, human cholecystokinin-1 receptor (human), P32238.
T1 chain: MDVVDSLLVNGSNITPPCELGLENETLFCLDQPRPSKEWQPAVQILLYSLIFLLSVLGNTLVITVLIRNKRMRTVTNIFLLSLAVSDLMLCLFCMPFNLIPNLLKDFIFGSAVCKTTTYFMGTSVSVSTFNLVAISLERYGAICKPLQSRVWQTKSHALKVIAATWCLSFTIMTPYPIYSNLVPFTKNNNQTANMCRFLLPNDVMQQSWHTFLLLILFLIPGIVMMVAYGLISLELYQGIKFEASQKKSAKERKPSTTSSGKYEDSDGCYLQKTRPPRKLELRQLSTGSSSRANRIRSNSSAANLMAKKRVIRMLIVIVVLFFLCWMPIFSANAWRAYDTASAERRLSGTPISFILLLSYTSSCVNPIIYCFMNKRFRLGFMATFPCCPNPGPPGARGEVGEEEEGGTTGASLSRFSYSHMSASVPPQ
Description: cell-based or functional assay.

For test [2], the target named is T2, human cholecystokinin-2 receptor (human), P32239.
T2 chain: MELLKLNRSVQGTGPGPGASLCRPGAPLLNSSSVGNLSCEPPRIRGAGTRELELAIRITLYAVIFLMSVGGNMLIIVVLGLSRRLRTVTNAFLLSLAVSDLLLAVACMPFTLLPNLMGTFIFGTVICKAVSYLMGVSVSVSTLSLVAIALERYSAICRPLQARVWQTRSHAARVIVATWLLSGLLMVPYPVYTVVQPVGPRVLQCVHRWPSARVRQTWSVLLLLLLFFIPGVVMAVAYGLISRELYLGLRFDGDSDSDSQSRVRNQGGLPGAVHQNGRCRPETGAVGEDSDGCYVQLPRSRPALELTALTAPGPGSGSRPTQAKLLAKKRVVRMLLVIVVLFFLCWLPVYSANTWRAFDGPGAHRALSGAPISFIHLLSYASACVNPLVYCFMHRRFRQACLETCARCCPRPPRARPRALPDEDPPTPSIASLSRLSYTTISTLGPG
As to the kind of experiment: cell-based or functional assay.

Test [3] addresses T1, human cholecystokinin-1 receptor …. As to the kind of experiment: SPA competition vs [125I]-CCK-8s, membranes.
Test [4] deals with T3, human cholecystokinin-2 receptor (human, UniProt P32239 1-447).
T3 sequence (looked up): T2 chain
Description: cell-based or functional assay.

The target of test [5] is T4, human cholecystokinin-1 receptor (human, UniProt P32238 1-428).
T4 sequence (looked up): T1 chain
Description: cell-based or functional assay.

Test [6] concerns the target T4, human cholecystokinin-1 receptor. As to the kind of experiment: SPA competition vs [125I]-CCK-8s, membranes. The protocol: (§1) CCK receptor binding assays were performed in 96-well Optiplates (Cat #6005290, PerkinElmer, Waltham, Mass., USA) in a total volume of 200 μl per well.
(§2) The plates were sealed and incubated in the dark at +22° C. for 2 hours on a IKA MTS plate shaker (IKA-Werke D-79219 Staufen) set at 300 rpm and thereafter centrifuged at 1500 rpm for 10 minutes in a Heraeus Multifuge 3s centrifuge. SPA bead light emission was measured in a TopCount NXT (PerkinElmer) for 2 min/well after a delay of 60 min.

The target in test [7] is T3, human cholecystokinin-2 receptor. As to the kind of experiment: SPA competition vs [125I]-CCK-8s, membranes. The protocol: as §1, §2

As usually defined, the IC50 is the midpoint of a concentration-inhibition curve. Higher therefore signals weaker potency in that assay.

Starred links: 1 amine or outer side, 2 acyl side, 3 side chain; linkers in the order of their positions; H or OH if unused. Non-standard residues stand in square brackets, D forms with d. No end group written: not given here. *: point of attachment. sY = N[C@@H](Cc1ccc(OS(=O)(=O)O)cc1)C(=O)O; C18 diacid = O=C(O)CCCCCCCCCCCCCCCCC(=O)*; γGlu = O=C(O)[C@H](CCC(=O)[*:2])N[*:1]; NMeF = CN[C@@H](Cc1ccccc1)C(=O)O; dNMeD = CN[C@H](CC(=O)O)C(=O)O; Nle = CCCC[C@H](N)C(=O)O; AEEA = NCCOCCOCC(=O)O Some results are limits rather than exact numbers.

Molecule {C18 diacid-γGlu-AEEA-AEEA}-D[sY]LGWQ[DMeAsp][NMeF]-NH2 had an EC50 (CCK-1R) in test [1] of 0.17 nM. Further, the EC50 (CCK-2R) in test [2] was over 1000 nM. Besides, the IC50 in test [3] was determined as 0.084 nM.

In test [4], D[sY]LGWL[DMeAsp][NMeF]-NH2 [Asp-sTyr-Leu-Gly-Trp-Leu-DMeAsp-MePhe-amide] yielded an EC50 (CCK-2R) of over 1000 nM. The EC50 (CCK-1R) in test [1] stood at 0.25 nM. This molecule displayed a half-maximal inhibitory concentration (IC50) in test [3] of 0.042 nM.

B1: 2-[2-[2-[[2-[2-[2-[[(4S)-4-Carboxy-4-(17-carboxyheptadecanoylamino)butanoyl]amino]ethoxy]ethoxy]acetyl]amino]ethoxy]ethoxy]acetyl-Asp-sTyr-Nle-Gly-Trp-Nle-DMeAs … (peptide)
peptide: {C18 diacid-γGlu-AEEA-AEEA}-D[sY][Nle]GW[Nle][dNMeD]W-NH2
SMILES: CCCC[C@H](NC(=O)[C@H](Cc1ccc(OS(=O)(=O)O)cc1)NC(=O)[C@H](CC(=O)O)NC(=O)COCCOCCNC(=O)COCCOCCNC(=O)CC[C@H](NC(=O)CCCCCCCCCCCCCCCCC(=O)O)C(=O)O)C(=O)NCC(=O)N[C@@H](Cc1c[nH]c2ccccc12)C(=O)N[C@@H](CCCC)C(=O)N(C)[C@H](CC(=O)O)C(=O)N[C@@H](Cc1c[nH]c2ccccc12)C(N)=O
notes: X = Nle or Nal
As for B1, the “EC50 (CCK-1R)” value in test [5] amounted to 0.24 nM. The “EC50 (CCK-2R)” value in test [4] was over 1000 nM. Moreover, the values for the IC50 in test [6] and in test [7] were 0.91 nM and 3000 nM, respectively.

D[sY]LGWQ[DMeAsp][NMeF]-NH2 [Asp-sTyr-Leu-Gly-Trp-Gln-DMeAsp-MePhe-amide] came in with an EC50 (CCK-1R) in test [1] of 0.15 nM. In test [2], this molecule gave an EC50 (CCK-2R) of over 1000 nM. In test [3], the IC50 was determined as 0.075 nM.

B2: 2-[2-[2-[[2-[2-[2-[[(4S)-4-Carboxy-4-(17-carboxyheptadecanoylamino)butanoyl]amino]ethoxy]ethoxy]acetyl]amino]ethoxy]ethoxy]acetyl-sTyr-Nle-Gly-Trp-Nle-DMeAsp-Me … (peptide)
peptide: {C18 diacid-γGlu-AEEA-AEEA}-[sY][Nle]GW[Nle][dNMeD][NMeF]-NH2
SMILES: CCCC[C@H](NC(=O)[C@H](Cc1ccc(OS(=O)(=O)O)cc1)NC(=O)COCCOCCNC(=O)COCCOCCNC(=O)CC[C@H](NC(=O)CCCCCCCCCCCCCCCCC(=O)O)C(=O)O)C(=O)NCC(=O)N[C@@H](Cc1c[nH]c2ccccc12)C(=O)N[C@@H](CCCC)C(=O)N(C)[C@H](CC(=O)O)C(=O)N(C)[C@@H](Cc1ccccc1)C(N)=O
notes: X = Nle or Nal
Turning to B2, the “EC50 (CCK-1R)” value in test [5] turned out to be 0.37 nM. The “EC50 (CCK-2R)” value in test [4] is 440 nM. Moreover, the figures for the IC50 in test [6] and in test [7] were 0.039 nM and 6500 nM, respectively.

B3: 2-[2-[2-[[2-[2-[2-[[(4S)-4-Carboxy-4-(17-carboxyheptadecanoylamino)butanoyl]amino]ethoxy]ethoxy]acetyl]amino]ethoxy]ethoxy]acetyl-Asp-sTyr-Ala-Gly-Trp-Nle-DMeAs … (peptide)
peptide: {C18 diacid-γGlu-AEEA-AEEA}-D[sY]AGW[Nle][dNMeD][NMeF]-NH2
SMILES: CCCC[C@H](NC(=O)[C@H](Cc1c[nH]c2ccccc12)NC(=O)CNC(=O)[C@H](C)NC(=O)[C@H](Cc1ccc(OS(=O)(=O)O)cc1)NC(=O)[C@H](CC(=O)O)NC(=O)COCCOCCNC(=O)COCCOCCNC(=O)CC[C@H](NC(=O)CCCCCCCCCCCCCCCCC(=O)O)C(=O)O)C(=O)N(C)[C@H](CC(=O)O)C(=O)N(C)[C@@H](Cc1ccccc1)C(N)=O
notes: X = Nle or Nal
With B3, the “EC50 (CCK-1R)” value in test [5] came out at 0.22 nM. The “EC50 (CCK-2R)” value in test [4] is 97 nM. For the same molecule, the IC50 stood at 0.068 nM in test [6] and 280 nM in test [7].

B4: Asp-sTyr-Ser-Gly-Trp-Nle-DMeAsp-MePhe-amide (peptide)
peptide: D[sY]SGW[Nle][dNMeD][NMeF]-NH2
modifications: N-terminus assumed
SMILES: CCCC[C@H](NC(=O)[C@H](Cc1c[nH]c2ccccc12)NC(=O)CNC(=O)[C@H](CO)NC(=O)[C@H](Cc1ccc(OS(=O)(=O)O)cc1)NC(=O)[C@@H](N)CC(=O)O)C(=O)N(C)[C@H](CC(=O)O)C(=O)N(C)[C@@H](Cc1ccccc1)C(N)=O
notes: X = Nle or Nal
Turning to B4, in test [5], the “EC50 (CCK-1R)” value came to 0.19 nM. Further, the “EC50 (CCK-2R)” value in test [4] is over 1000 nM. The IC50 in test [6] is 0.035 nM; in test [7], 3600 nM.

B5: 2-[2-[2-[[2-[2-[2-[[(4S)-4-Carboxy-4-(17-carboxyheptadecanoylamino)butanoyl]amino]ethoxy]ethoxy]acetyl]amino]ethoxy]ethoxy]acetyl-Asp-sTyr-Ser-Gly-Trp-Nle-DMeAs … (peptide)
peptide: {C18 diacid-γGlu-AEEA-AEEA}-D[sY]SGW[Nle][dNMeD][NMeF]-NH2
SMILES: CCCC[C@H](NC(=O)[C@H](Cc1c[nH]c2ccccc12)NC(=O)CNC(=O)[C@H](CO)NC(=O)[C@H](Cc1ccc(OS(=O)(=O)O)cc1)NC(=O)[C@H](CC(=O)O)NC(=O)COCCOCCNC(=O)COCCOCCNC(=O)CC[C@H](NC(=O)CCCCCCCCCCCCCCCCC(=O)O)C(=O)O)C(=O)N(C)[C@H](CC(=O)O)C(=O)N(C)[C@@H](Cc1ccccc1)C(N)=O
notes: X = Nle or Nal
For the molecule B5, the “EC50 (CCK-2R)” value in test [4] is 940 nM. The IC50 in test [6] was found to be 0.058 nM; in test [7] it was 4700 nM.

B6: 2-[2-[2-[[2-[2-[2-[[(4S)-4-Carboxy-4-(17-carboxyheptadecanoylamino)butanoyl]amino]ethoxy]ethoxy]acetyl]amino]ethoxy]ethoxy]acetyl-Asp-sTyr-Phe-Gly-Trp-Nle-DMeAs … (peptide)
peptide: {C18 diacid-γGlu-AEEA-AEEA}-D[sY]FGW[Nle][dNMeD][NMeF]-NH2
SMILES: CCCC[C@H](NC(=O)[C@H](Cc1c[nH]c2ccccc12)NC(=O)CNC(=O)[C@H](Cc1ccccc1)NC(=O)[C@H](Cc1ccc(OS(=O)(=O)O)cc1)NC(=O)[C@H](CC(=O)O)NC(=O)COCCOCCNC(=O)COCCOCCNC(=O)CC[C@H](NC(=O)CCCCCCCCCCCCCCCCC(=O)O)C(=O)O)C(=O)N(C)[C@H](CC(=O)O)C(=O)N(C)[C@@H](Cc1ccccc1)C(N)=O
notes: X = Nle or Nal
For B6, the “EC50 (CCK-1R)” value in test [5] stood at 0.41 nM. Also, in test [4], the “EC50 (CCK-2R)” value worked out at 390 nM. Besides, the IC50 in test [6] came out at 0.065 nM; in test [7] it was 5600 nM.

For D[sY]LGWV[DMeAsp][NMeF]-NH2 [Asp-sTyr-Leu-Gly-Trp-Val-DMeAsp-MePhe-amide], in test [4], the EC50 (CCK-2R) is over 1000 nM. The same molecule registered an EC50 (CCK-1R) in test [1] of 0.34 nM. Moreover, the IC50 in test [3] amounted to 0.62 nM.

Molecule D[sY]LGWA[DMeAsp][NMeF]-NH2 [Asp-sTyr-Leu-Gly-Trp-Ala-DMeAsp-MePhe-amide] came in with an EC50 (CCK-1R) in test [1] of 0.22 nM. For the same molecule, the EC50 (CCK-2R) in test [2] is over 1000 nM. In addition, the IC50 in test [3] stood at 0.53 nM.

{C18 diacid-γGlu-AEEA-AEEA}-D[sY]LGWA[DMeAsp][NMeF]-NH2 displayed an EC50 (CCK-1R) in test [1] of 0.17 nM. Further, the EC50 (CCK-2R) in test [2] came out at 880 nM. The molecule also came in with an IC50 in test [3] of 0.65 nM.

Regarding D[sY]LGWP[DMeAsp][NMeF]-NH2 [Asp-sTyr-Leu-Gly-Trp-Pro-DMeAsp-MePhe-amide], in test [4], the EC50 (CCK-2R) was over 1000 nM. This molecule also came in with an EC50 (CCK-1R) in test [1] of 0.34 nM. The IC50 in test [3] worked out at 0.11 nM.
